According to paper PMC4919469 (2016):

Assays:
Cdc42Δ7Q61L [1] = biological target: T1, Cdc42Δ7Q61L (human, UniProt P60953 1-184, Q61L); assay: competition SPA vs GST-WASP GBD
Target sequence in this assay (P60953 1-184 Q61L): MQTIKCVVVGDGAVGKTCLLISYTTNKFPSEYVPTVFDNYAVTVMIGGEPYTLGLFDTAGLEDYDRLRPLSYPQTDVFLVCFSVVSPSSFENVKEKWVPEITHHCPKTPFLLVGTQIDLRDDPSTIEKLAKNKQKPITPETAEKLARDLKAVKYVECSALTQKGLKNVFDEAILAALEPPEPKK

Cdc42Δ7Q61L [2] = biological target: T1, Cdc42Δ7Q61L; assay: direct SPA, GTP-bound Cdc42
Cdc42Δ7Q61L [3] = biological target: T1, Cdc42Δ7Q61L; assay: direct SPA, GTP-bound Cdc42; remark: listed apart in the source

B1: N-WASP G protein-binding domain (GBD) (residues 197–255) (domain or fragment)
chain: KKKLTKADIGTPSNFQHIGHVGWDPNTGFDVNNLDPELKKLFDLCGISEAQLKDKETSK
Kd (Cdc42Δ7Q61L [1]): 16 nM

ISLPSDFEHTIHVGFDAVTGEFTGMPEQWARLLQTSNITKSEQK (domain or fragment) [GST-PAK]
Kd (Cdc42Δ7Q61L [2]): 60 nM

B2: His-SNAP-TOCA1 ΔSH3 (residues 1–480) (domain or fragment)
chain: MSWGTELWDQFDNLEKHTQWGIDFLDKYAKFVKERLEIEQNYAKQLRNLVKKYCPKRSAKDEEPRFTSCLSFYNILNELNDYAGQREVVAEEMGHRVYAEIMRYSNDIKGERKSHLQEGRKAQQYLDMCLKQMDNSKRKFERECREAEKAQQTYERLDNDSNATKSDVEKAKQQLHLRTHMADESKNEYAAQLQNYNAEQHKHFYIVIPQVYKHLQEMDERRTVKLSECYKGFADAERKVIPIISKCLEGMVQAAKSVDERRDSQIVVDCFKSGFEPNGDYPFEDYSQHIYRTVSDGTISTPKQESLKPDPRVTVGKAKGKLWLFGKKPKGPALEDFSHLPPEQRRKRLQQRIDELSRELQKEMDQKDALNKMKDVYEKNPQMGDPSSLHPKIAETTSNIERLRMEIHKNEAWLSEVEGKVSQRSERRHSAEANHLVAQGRESPEGSYTEDANQEGRVQPQPHAHPEFDDEFDDDEPLPA
Kd (Cdc42Δ7Q61L [3]): > 1000 nM

B3: His-SNAP-TOCA1 (full-length X. tropicalis TOCA1) (natural protein)
chain: MSWGTELWDQFDNLEKHTQWGIDFLDKYAKFVKERLEIEQNYAKQLRNLVKKYCPKRSAKDEEPRFTSCLSFYNILNELNDYAGQREVVAEEMGHRVYAEIMRYSNDIKGERKSHLQEGRKAQQYLDMCLKQMDNSKRKFERECREAEKAQQTYERLDNDSNATKSDVEKAKQQLHLRTHMADESKNEYAAQLQNYNAEQHKHFYIVIPQVYKHLQEMDERRTVKLSECYKGFADAERKVIPIISKCLEGMVQAAKSVDERRDSQIVVDCFKSGFEPNGDYPFEDYSQHIYRTVSDGTISTPKQESLKPDPRVTVGKAKGKLWLFGKKPKGPALEDFSHLPPEQRRKRLQQRIDELSRELQKEMDQKDALNKMKDVYEKNPQMGDPSSLHPKIAETTSNIERLRMEIHKNEAWLSEVEGKVSQRSERRHSAEANHLVAQGRESPEGSYTEDANQEGRVQPQPHAHPEFDDEFDDDEPLPAIGHCKSLYPFDGNNEGTLAMKEGEVLYIIEEDKGDGWTRARKQNGEEGYVPTSYIDITLEKNSKGAVTYI
Kd (Cdc42Δ7Q61L [3]): > 1000 nM

GLSAQDISQPLQNSFIHTGHGDSDPRHCWGFPDRIDELYLGN (domain or fragment) [GST-ACK GBD]
Kd (Cdc42Δ7Q61L [3]): 46 nM
